The record followed here is PMC8177701 (Science Advances, 2021).

This test addresses T1, RsmA (E. coli, UniProt P06992 1-273).
T1 sequence (looked up): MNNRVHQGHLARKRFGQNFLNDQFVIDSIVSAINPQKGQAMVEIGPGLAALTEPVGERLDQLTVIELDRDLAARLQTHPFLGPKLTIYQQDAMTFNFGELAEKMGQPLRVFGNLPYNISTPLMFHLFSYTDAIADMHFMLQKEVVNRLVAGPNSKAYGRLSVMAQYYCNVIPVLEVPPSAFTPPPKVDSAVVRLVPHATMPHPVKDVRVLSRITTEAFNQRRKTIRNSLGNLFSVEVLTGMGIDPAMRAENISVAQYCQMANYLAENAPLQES
The experiment in a line: NMR titration.

B1: RimP (natural protein)
chain: not shown
Turning to B1, the Ka was below 10000 M⁻¹.
